For test [1], the target named is platelet integrin αIIbβ3 (human) (UniProt P05106). Kind of test: optical trap-based force spectroscopy; as a5, with free γC-12 or cRGDFK present; concentrations not given.
The target is the same in test [2]. Kind of test: optical trap-based force spectroscopy; as a7, with free γC-12 or cRGDFK present; concentrations not given.
Test [3] has the same target. Briefly: optical trap-based force spectroscopy; as a1, with a competitive antagonist of αIIbβ3 (γC-12, cRGDFK or eptifibatide) present; concentrations not given.
Test [4] concerns the target polymerized fibrin (human) (UniProt P02679). Kind of test: optical trap-based force spectroscopy; as a1, but with non-activated αIIbβ3 (no Mn^2+ activation) on the bead.
UniProt P02679, sequence (P02679 whole entry, looked up): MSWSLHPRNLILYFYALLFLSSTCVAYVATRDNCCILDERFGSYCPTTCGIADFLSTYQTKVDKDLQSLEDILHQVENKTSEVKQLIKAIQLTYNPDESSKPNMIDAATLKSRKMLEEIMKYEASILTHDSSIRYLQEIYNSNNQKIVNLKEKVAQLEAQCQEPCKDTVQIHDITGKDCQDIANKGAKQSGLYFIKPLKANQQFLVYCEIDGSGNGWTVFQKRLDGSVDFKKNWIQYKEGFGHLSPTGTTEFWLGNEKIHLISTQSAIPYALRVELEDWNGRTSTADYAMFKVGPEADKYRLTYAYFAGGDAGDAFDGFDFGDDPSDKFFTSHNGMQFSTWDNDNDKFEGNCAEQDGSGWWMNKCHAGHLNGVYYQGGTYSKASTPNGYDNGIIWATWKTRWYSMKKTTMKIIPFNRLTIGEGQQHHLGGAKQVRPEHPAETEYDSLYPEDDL
The target in test [5] is fibrinogen (human) (UniProt P02671). Kind of test: optical trap-based force spectroscopy; Mn^2+-activated αIIbβ3 on a laser-trapped latex bead tapped against a silica pedestal covalently coated with fibrinogen; 0.1 M HEPES, pH 7.4, 2 mg/ml BSA, 0.1% Triton X-100; two-state fit of the rupture force profile.
UniProt P02671, sequence (P02671 36-866, chain 1 of 3): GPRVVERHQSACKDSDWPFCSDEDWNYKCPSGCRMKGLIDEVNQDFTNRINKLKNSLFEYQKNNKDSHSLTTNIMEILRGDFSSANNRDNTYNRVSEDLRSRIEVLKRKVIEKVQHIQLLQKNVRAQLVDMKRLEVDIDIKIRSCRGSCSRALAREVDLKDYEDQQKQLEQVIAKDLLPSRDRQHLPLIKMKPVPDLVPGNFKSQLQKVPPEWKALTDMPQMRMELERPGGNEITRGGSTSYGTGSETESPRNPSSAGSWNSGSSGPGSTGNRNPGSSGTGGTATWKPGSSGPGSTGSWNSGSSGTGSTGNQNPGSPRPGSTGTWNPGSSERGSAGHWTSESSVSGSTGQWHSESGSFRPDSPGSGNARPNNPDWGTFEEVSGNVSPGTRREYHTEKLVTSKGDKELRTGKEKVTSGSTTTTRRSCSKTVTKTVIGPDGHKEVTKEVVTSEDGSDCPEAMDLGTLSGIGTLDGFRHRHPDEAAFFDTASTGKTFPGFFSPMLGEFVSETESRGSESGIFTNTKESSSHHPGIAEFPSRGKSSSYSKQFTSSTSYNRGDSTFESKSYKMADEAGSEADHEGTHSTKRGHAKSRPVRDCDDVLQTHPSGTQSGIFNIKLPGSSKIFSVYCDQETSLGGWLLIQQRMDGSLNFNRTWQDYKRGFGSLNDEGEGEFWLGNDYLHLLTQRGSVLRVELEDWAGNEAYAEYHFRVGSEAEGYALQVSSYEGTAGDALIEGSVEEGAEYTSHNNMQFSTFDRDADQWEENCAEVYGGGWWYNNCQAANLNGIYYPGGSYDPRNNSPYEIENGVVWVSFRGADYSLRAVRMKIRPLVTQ
UniProt P02671, sequence (P02675 45-491, chain 2 of 3, further chain): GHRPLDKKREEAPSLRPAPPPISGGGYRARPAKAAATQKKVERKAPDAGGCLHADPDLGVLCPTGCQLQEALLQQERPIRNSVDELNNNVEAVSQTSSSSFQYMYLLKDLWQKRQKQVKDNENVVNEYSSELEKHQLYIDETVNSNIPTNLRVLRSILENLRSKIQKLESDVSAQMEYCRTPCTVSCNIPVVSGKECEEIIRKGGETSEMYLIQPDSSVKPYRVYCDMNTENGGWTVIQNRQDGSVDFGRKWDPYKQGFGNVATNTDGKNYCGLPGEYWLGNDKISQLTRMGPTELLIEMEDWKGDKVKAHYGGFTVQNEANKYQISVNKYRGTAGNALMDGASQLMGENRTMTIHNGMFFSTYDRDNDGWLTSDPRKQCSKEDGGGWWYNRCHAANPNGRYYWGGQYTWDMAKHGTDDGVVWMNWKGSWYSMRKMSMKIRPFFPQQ
UniProt P02671, sequence (P02679 other isoform, or with tags, fused parts or gaps, chain 3 of 3, further chain): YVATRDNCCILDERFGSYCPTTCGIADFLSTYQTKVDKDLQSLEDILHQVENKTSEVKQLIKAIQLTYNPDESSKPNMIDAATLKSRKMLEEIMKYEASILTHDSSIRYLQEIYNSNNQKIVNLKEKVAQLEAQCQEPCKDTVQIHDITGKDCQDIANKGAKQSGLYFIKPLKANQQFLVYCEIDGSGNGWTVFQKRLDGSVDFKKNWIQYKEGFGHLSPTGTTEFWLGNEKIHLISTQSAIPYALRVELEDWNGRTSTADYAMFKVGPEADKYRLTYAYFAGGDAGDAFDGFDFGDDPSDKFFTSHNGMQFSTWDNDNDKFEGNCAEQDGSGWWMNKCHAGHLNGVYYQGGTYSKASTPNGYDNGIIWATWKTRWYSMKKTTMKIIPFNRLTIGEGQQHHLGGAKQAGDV
For test [6], the target named is monomeric fibrin (human) (UniProt P02679). Kind of test: optical trap-based force spectroscopy; Mn^2+-activated αIIbβ3 on a laser-trapped latex bead tapped against a silica pedestal covalently coated with monomeric fibrin; 0.1 M HEPES, pH 7.4, 2 mg/ml BSA, 0.1% Triton X-100; two-state fit of the rupture force profile.
For test [7], the target named is polymerized fibrin (human) (UniProt P02679). Briefly: optical trap-based force spectroscopy; Mn^2+-activated αIIbβ3 (or BSA) on a laser-trapped 2.0 µm latex bead tapped against the edge of a fibrin clot in a flow chamber; 0.1 M HEPES, pH 7.4, 2 mg/ml BSA, 0.1% Triton X-100; 5 Hz, 800 nm amplitude; clot from re-calcified plasma or from purified fibrinogen, which one gave the tabulated data is not given; two-state fit of the rupture force profile.

Ends that are not written are not given here.

The text below walks through data of paper PMC5636895.

In test [1], “fibrinogen γC-dodecapeptide (from UniProt P02679-2 426-437)” yielded a cumulative binding probability of αIIbβ3 to m-fibrin with γC-12 present, rupture forces 30–60 pN of 7.4% and a cumulative binding probability of αIIbβ3 to m-fibrin with γC-12 present, rupture forces >60 pN of 12.3%. In test [2], this molecule gave a cumulative binding probability of αIIbβ3 to fibrinogen with γC-12 present, rupture forces 30–60 pN of 1.8% and a cumulative binding probability of αIIbβ3 to fibrinogen with γC-12 present, rupture forces >60 pN of 0.2%. Besides, in test [3], the cumulative binding probability of αIIbβ3 to p-fibrin with γC-12 present, rupture forces 30–60 pN amounted to 2.1% and the cumulative binding probability of αIIbβ3 to p-fibrin with γC-12 present, rupture forces >60 pN is 0.8%.
As to “platelet integrin αIIbβ3 (from UniProt P05106 27-788) (receptor)”, in test [4], the cumulative binding probability, rupture forces 30–60 pN came to 4.7% and the cumulative binding probability, rupture forces >60 pN is 1.7%. In test [5], this molecule showed a cumulative binding probability, rupture forces 30–60 pN of 4.8%; a cumulative binding probability, rupture forces >60 pN of 3.6%; a highest rupture force of less than 140 pN; an initial probability of the high-affinity state (two-state fit) of 0.0063. This molecule returned a peak of the strong rupture forces in test [5] of 70 to 80 pN. In test [6], the cumulative binding probability, rupture forces 30–60 pN was determined as 21%; the cumulative binding probability, rupture forces >60 pN was found to be 22%; the highest rupture force was less than 140 pN; the initial probability of the high-affinity state (two-state fit) came out at 0.0181. In test [6], this molecule showed a peak of the strong rupture forces of 70 to 80 pN. Further, in test [7], the cumulative binding probability, rupture forces 30–60 pN stood at 4.6%; the cumulative binding probability, rupture forces >60 pN was found to be 3.2%; the initial probability of the high-affinity state (two-state fit) was 0.014; the peak of the strong rupture forces is 70 to 80 pN.
Turning to RGDFK (also: cyclic, ring type not given here) [cyclic RGDFK peptide], in test [1], the cumulative binding probability of αIIbβ3 to m-fibrin with cRGDFK present, rupture forces 30–60 pN came to 5.1% and the cumulative binding probability of αIIbβ3 to m-fibrin with cRGDFK present, rupture forces >60 pN is 2.7%. In test [2], the cumulative binding probability of αIIbβ3 to fibrinogen with cRGDFK present, rupture forces 30–60 pN is 2.5% and the cumulative binding probability of αIIbβ3 to fibrinogen with cRGDFK present, rupture forces >60 pN was 0.3%. Besides, in test [3], the cumulative binding probability of αIIbβ3 to p-fibrin with cRGDFK present, rupture forces 30–60 pN amounted to 2.2% and the cumulative binding probability of αIIbβ3 to p-fibrin with cRGDFK present, rupture forces >60 pN was 0.6%.
